# Assay: soluble fraction after stress (log2 fold change); higher = more stays soluble; pooled small domains, quantitative proteomics
# Conditions: stress: pH 4
# How it was run: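 Custom libraries of small protein domains were pooled and measured with high-throughput quantitative proteomics after pH 4 stress. The read-out is the fold change in the amount of each domain that stays soluble after the acid stress, taken as a measure of aggregation propensity. Fold changes are on a log2 scale, and higher values mean more of the domain stayed soluble.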
row,Sequence,soluble fraction (log2)
1,HMHEIVDTVLQVKQSVEADPLIAPALKNKEIVFQLNAKGVFQFKNAVIQVASALGISKNTVYMHLRNNK,-0.14
2,HMEILTRQLTHYLHLLPPAQQEVVRGVYLQDQTLQEIADRVQIPLGTVKSRLRLGLSKLREQIEQEHE,0.291
3,HMDPSWVPVFNNLRDAILSHQLLPGTRLAEDELSNIYGLGRTVIRSALGALTHEGLLTHIPNRGVHVAKP,-0.585
4,HMHEYSRIYQQQWWDNATGADAYHVIHSARSRAAQDPEAARALEYLEEQFRIRYGVRTEDFLGYLHD,-1.31
5,HMDIINLADNIARLRRRRQITQEELADYLGVTKAAVSKWENRQTMPDILLLPRLAGLFEVTIDELVGY,-1.72
6,HMQVSDVTELRTILEKVITENESVATEFKEGKDAAMNFLVGQGMKATRGAADPALLKEIITGIL,-0.358
7,HMIQIQDIAFSEFLQELDKGNIVEVNIKGDLINGDLINGKKFKTVAPYDPNLVEKLSKQNVRINVEPIN,-0.0277
8,HMLPQYELIKQYLRHQIETGEWPIGYRTPSEPKLAEQFSVSRMTARRALQELADQGLLSRTAGSGTFVAKP,0.0856
9,HMDRLTISTLGNGLFRVNGAEAEATVYNLSGNVVKVVPADEVIDLSSLAKGVYIIHVDGEAFKVI,-0.0808
10,HMFNGDPTTRESILASARAEIDQYGIIGLRLSAVAEKAQVSVPLIYKYFEDRDGLLAVVLGDW,-1.36
11,HMSAPLKELGNDPESGKPIVVKDGRFGAYVTDGETNATLRKTDAVESLTPERAAELLAEKRAKG,0.199
12,HMTLTPEQQAARRSEIVDIALRLIAENGFQKTSMREIADLAKMGKSSLYDFFKTKDEIAVYAMEKK,-0.856
13,HMDVAWDAIKAKLKEVVDAEDKAHPLNDDQIVKALGESGITIARRTIAKYRDLLGIPPARKRKA,0.0412
14,HMPANLTPDYFKAEQWYRSASTNEEKMLALEQMLAVMPKHKGTEHLQADLKRKLSQLKDASAQ,≥ 0.43
15,HMFTKSNLEKLSNSELILKAIDSGNYSKIEFGGSEALNPDVPSYKKDLKNREELIEILSEMGM,-0.0908
16,HMARAESYGDIARLEQLLDEHANIAALDPGKLPAVRQQIWTLMRAARMDHDLGLAERPEDDSFDDMLLHV,-0.0475
17,HMENVLFVNVLSMTVRELAEMMKIPVNKIIQDSFSKGIMMNPNQRLEYDNFAELAKKYGITVKI,-0.691
18,HMDPALSPAEQKIWDLLAAGETHIDDLVRASGLPVATVNSALVMMEMKEVISQVAAKTYRRNRRN,-0.458
19,HMGGAVQIAEQIAARIKDGALRPGELLPPVRQLAAELEVNPNTVASAYARLRDAGLVATRGRAGTVVLEPP,-0.246
20,HMLPVYSITEAAERLDIPASTIKWYADRFASYISPSKGKGRKRFTPEDLATLQKIHELSQDHTTEEAEAML,-1.16
21,HMSQQEAQLNSLVKIYESMKPKDAARIFDTLDMDVLLDVVMRMKEARSAAVLAEMTPDRAKEVTLQLAD,-1.8
22,HMARDPWDVLGVAKTATNDEIKRAFKRQAMMTHPDKQGGSEERFKEVNEAYSHIKDEQSRAKYQNSQ,0.0164
23,HMKEKQLMTLDDDLYAFLLKHPGIIQKDIYNHFPYDIKGVIADTLYAWDKTGKIKRTKSGNSYIIYT,-0.141
24,HMPIDNTLLSRITSLGVSTTEAEKLISKHGEEALKANLEVVEERLSKPNLPLLDSPAAYLKTALKNG,0.224
25,HMEQYFEDEELNDKFLEFLAMRKRVRKPVQTDRGMKMLLTSLHKLSGGDVGLMKQIIDQSLDNEWKKFVA,-1.12

row,Sequence,soluble fraction (log2)
1,HMNPHIQFWSLLRRQPDYNSAYKDELKAMFVWQWSGEKTESLNEFYKTDPYRYKSMLMDMRNRAL,-0.354
2,HMKTYEILFDILSRESDYISGEKLAQELGISRTSIWKAIQHLEKEGVHIESVKNKGYKLLSGDLLIAEKI,-0.343
3,HMGRKIDDPSSMTGAEKAAVILLALGDEQRQLWEMMDDEEIRVVSQAMVNLGNVTSGAVEKLIMEFVGSMS,-0.425
4,HMSISEFNYTEFNGLVEKGQVSEVTISGREIEGRLTSGESFKTYSPETDNSALVGDLLKNNVKINGKP,-0.158
5,HMAVDAASSTIGKNVEVSVANEKGDYENFNGKVKSASIKDGVVYLELELKDTGEIKEVPYSSLTKIT,0.355
6,HMNSLKNKNNLIALVGASNDKNKYGNKILLDLVSKGHNVVPINPKEDTVAGLKSYNNVSELSEKPSI,-0.202
7,HMGDPYAILGLLPGASMEDVRHAWRRQAAENHPDRMLQRGAPPEFVEIAREKTAAINAAYARIREELSI,-0.638
8,HMSPIKAGDLVKITGTKYYRGQTIPSWVKAKNWFVHSVSGDRAVINKSEDGKNAIMSPVKVSNLALVT,0.0492
9,HMGELDFYEEMRDDYLTGKIWNVGEIVEAKGMIGEIVRKGTNYISFVTDDNKVHKAWLHEIKL,-1.37
10,HMNVPATAEAYEALLADAESVGKSLWGHEAKRFAAEQALLSAGLREVIQVDPDKARELALRLRGLLDEYRG,-1.24
11,HMSSYTQEDVRSGILYMAQLKPRNIEEFVSTLAFSKDDIMDNLSFLVDEGFLKFDADTDTYFNPVPL,-0.604
12,HMRDDAIQQGREIVERELHRLDLAYTTLTDVLAKLEYEKLDDLYAAVGFGIRSPHSVAAAALQVERDKA,-1.19
13,HMEKSSALRAKEAFMALYHDGKFKPGTKIPSESNMAELLGVSRETWRKALALLRGDGVLYSKHGSGTYLLE,-0.0262
14,HMRTIGDSVYEKIKYDIVHLTLKPGEKLSEASLAEKYGISKAPIRVALRKLQEEGLIVIRPQSGSIVSP,0.0262
15,HMSLYGGYEIDIIKEEVVDAGIKLLRRRVIVADQRGISVYEGKPTFASDDQVLIKEGQYQIDKLG,-1.46
16,HMDLTSDANLKEAKDQILNLLNDGKRHHVTEINKILLPPVQVQEALRFLIHEETVRVDASFLF,-0.083
17,HMKGTVKFFNESKGFGFITEEGTNKEHFVHVSGLVDEIRENDEVEFDLQDGRKGLNAVNVRV,0.0618
18,HMEDNLMIVVQVNGKKRSEIKVSIDASEDQIKQTALAEPNVQKFVEGHTIRKMILVPSKLLNIVV,≥ 0.43
19,HMARTDVKLREVAQELLRMGLLEESLRPHLYRTALASMERLNATLEPLDLIARADEIRGLVFLAVRH,-0.548
20,HMLAAAVVVYATDKVNVRAEASETADVIGQLEAGSQTTRLEDKDGWSRIDYSNGTQGYMKSEFLSTEAPT,-0.622
21,HMNKMIDAPDLTGLSLEDAKLVLEANKLQLGTVSHEPSDKPEDVVISQDPMEGQEIQQGGKVNLVVSYGD,-0.104
22,HMAPGSKAEIPEDLMKVINKDPKMKAFVATLNKANIMAISFRLSTAKKPETRERRFNLILETLKRGEKF,-0.644
23,HMAAMDMFVKLDALDAELTEQLKALPAEPDDARVERGLALLTDYDHRIKALLTEIFGGENDFDKVL,-2.25
24,HMSTTGIVKWFNEEKGFGFITQDQGGADVFVHYRAIASEGFKTLAEGQKVSFEVEQGQKGLQAANVQA,-0.948
25,HMGPNPLTEREQEILQLARTGEPVARLAKRLFLSPGTVRNHLSSAIGKLGAANRVEAAQFATERGW,-0.0238

row,Sequence,soluble fraction (log2)
1,HMTFEPVYDENSRILILGTFPSVKSREQQFYYGHPQNRFWKLLAALTGWKVPKTISEKKELLLQNGIA,-0.665
2,HMNKNQIGTNAGIVWKLLSDNVHWEYDKLKHASGLSDRDLNAAIGWLAREDKIDFDIDEQHDRLFL,-0.255
3,HMSTKRGEILEFLKDFSARKGYAPSVREIMQAVGLKSTASVHYHLSELHKAGLITVDGTKNRAISLA,0.0891
4,HMLKIAENIYQRRKEKNITQEELADFMMVTKASVSKWETGQSYPDILLLPKLATFFNVTVDELIGYEPQ,-1.07
5,HMKGLDRATNKALLLKHIIDNGSTGTRFSELRQVLPSLTRGSISSLLIELRSEGKIHSIGVTRNARWYPTE,-0.309
6,HMKNNAIAPDQVVSLLKNEVNYNDDGRIEILDNNKNIRYNSKGELLTIEERVNEFLDANPHFRK,-0.0472
7,HMTTLTPIGKMKGEIDGDFEAFYLAVDKDGQVYLNRDPDYSENRYEKSRGWELVTREQLAVYEKELHFIP,-0.25
8,HMEGTEVTTEPPGAQIEFDGKQFGPTPTRVPGLAAGKQFRITLAGYQEAKPKLKNNPKEGEPLSFTLTAI,0.264
9,HMKDGMRVYITYHDSEEEPEKPIGDGTTKGWHTNSTASVVWISQKVAESADLGIWGDPIRIKGEA,-0.217
10,HMRPDSFEAGEAEAGSRLDRLLAARLGIPRNQVQQWIGGGRVTVDAEPVRASLVVRAGMRIAWDPPPPP,0.0905
11,HMITTLLVENLQDVGMRLDHYLVYNLIKYSRSHIQSFIRSGDIRVNGKKVKTGYSLELKDLIHIEMP,-1.1
12,HMDRMFQPETWSKIYQWVMNDPQVPDKEDVLALIRRHFGNFEKLIKLLHYLDGGKPYAYLSEH,0.411
13,HMSSSYVYGGNGEIVILSDVSKHLNVYNLNGQKVTDVNLTAGELQRISIATGIYVVGGKKIVV,-0.121
14,HMANSDEEVLNKISTKAPTFNELINKIKEFDDTKEINDIWLDVYRYYITDEEYKEIAKKVITGLTYTNQ,-0.544
15,HMAVPFTIDVSQNGRYFIEEDNQVVEVSIGFLEDRFLRIIKSNPDIEVIIRGDAKASYESIAELLAVLQ,-0.782
16,HMLRPMVAILNKNISKGQVISEDYIKFEVRPERQIHGAYHDISEVLGRKTKNNIAAGTILKVRHLDT,0.375
17,HMAEWLFDARKIPDEVMNYLRRIAVQAIEEKHYSPELVADLLGISRSSIYDWLNWYRNGGEEDLDTRKA,-0.543
18,HMDTPPGLSPEEQAIIDIITTRGDATINELTASIDIPTPRLMGMLVDMEFRSLIAAIPGGRYRI,-1.42
19,HMTPGPFLVYITGAVERPNVLVTLDYGSRVIDALNAAGGSRIDANLDLVNLAQRLVDGDQIHVPTLR,-1.1
20,HMQVEYTRGELIQDLEGGKIVYAGISPSRETPTGEVNFILDSGLTRTLYVTDVSEIEQLLISYDIDPEVKK,-1.63
21,HMLDEKAVRQYLLNTLENSEIKMDRQAIDLFLRLTDLDLSKMMRELQKILLYGQEQEVITVKEIEQ,-1.17
22,HMGFALLIAIERTGNTTYFVKLTLIKKGSDSDVLKDSFSVSQGDLVGTATYDSVIANRIREKTAAMWQKAT,-0.73
23,HMTGGLTQEQISQLRMLTPQQIEQLRQLQPQQVEMLRQLRPEQVMLLTQLEPQQIMAFMRLEPSVIMQL,-0.657
24,HMKRVTRQRTEILRVIDESERPLGPQEILQAGREAIPSLSIATIYRTLRDLLAEELIKTVALPGDSPRYES,-0.0601
25,HMRHLSVPNRQVEGALDHIRSQGWLAEGMRVFASEDGSARLIPLGPGAPLEMLEPLAKFDVISHEGKPY,-0.771

# Source: the domain aggregation screens of Martell et al. (2025)
